Assay: yeast display, Sf9 membrane polyspecificity reagent, FACS + sequencing; frameworks hold sequencing errors
Outline: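 Nanobodies from a synthetic yeast display library (Saccharomyces cerevisiae BJ5465), induced 36–48 hours with galactose, were stained 1 hour at 4 °C with 10% biotinylated, detergent-solubilized Sf9 membrane reagent, enriched on streptavidin microbeads, then FACS-sorted. Anti-HA (expression) and streptavidin (reagent binding) fluorescence set low and high (top ~1%) gates. Polyreactivity labels come from the gate of origin. Genes were colony-PCR amplified, MiSeq 2 × 250 sequenced and filtered by CDR length.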

Sequence	polyreactivity (PSR sort gate)
QVQLEESGGGLVQPGGSLRLRCAASGITFYWNAMGWYRQAPVKERELVAGITNSGGGTYYADSVKGRFTISRDNSMYTVYLLMNSLKPEDSAVYYCAAEPTSWYFFYYVGDYLGQGTQVTVSS	high polyreactivity
QVQLEESGGGVVQAGGSLRLSCAASGRIFDRYDMARYRQAPGKERELVASISSGGSTYYADSVKGRFTISRVTAKNPVYLQMNSLKPEDTAVYYCNAEARSRRYRYDYWGQGTQVTVSS	high polyreactivity
QVQLEESGGRLLQAGGSLRLSCAASGCTFGSYDMGLYRQAPGKERELVARISSDGSTNYADSVKGRFSISRDNAKNTVYLQMNSLKPEDTAGYYCARDRKRQADDIGEFDYWGQGSQVTVSS	low polyreactivity
QVQLEESGGRLVQAGGSLRLSCAASGFTFRYYAMGWYRQAPGKERELVAAITSGGSTNYADSVKGRFTISRDNAKNTVYLQMNSLKPEDTAVYYCKKVPWGSRRMDYWGQGTQVTVSS	high polyreactivity
QVQLEESGGRLVQAGGSLRLTCAASGRTYARYAIGWNRQAPGKERQLVAAISRGGTTNYADSVKGRFTISRDNAKNTVYLQMNSLKPEDTAVYYCNRDFHLIHLSSARLDYWGQGTQVTVSS	low polyreactivity
QVQLEESGGSLVQAAGSLRLSCAASGSIFSPYAMGWYRQAPGKERELVAAITWRGGTFYADSVKGRFTISRDNAKNTVDLQMNSLKPEDTAVYYCNARFGQTVKGTYGRYYYWGQGTHVTVSS	high polyreactivity
QVQLEESGGVLVQAGGSLRLSCAASGSNFYLYAMGWYRQAPGKERELVAGITRSGGRTYYADSVKGRFTISRDNAKNTVYLQMNSLKPEDTAVYYCAAYLVVRIRYTQRYDYWGQGTQVTVSS	low polyreactivity
QVQLEESGRGLVQAGGSLPLIFAASGSIIRGYAMGWYRPAPGKERELVAAINWSGSSTYYADSVKGRLTISRDNAKNTVNLQMNSLIPEDTAVYYCALVYYNRNLGGDYWGQGTKVTVSS	low polyreactivity
QVQLEESGRGLVQAGGSLRLSCAASGSISGYYAMGWYRQAPGKERELVAVITSSGTSTYYADSVKGRFTISRDNAKNTVYLQMNSLKPEDTAVYDCWGQGTQVTVSS	low polyreactivity
QVQLEESGRGLVQAGVSLRLSCAASGSTFYRYAMGWYRQAPGKERELVAANSQSGARTYYADSVKGRFTISRDNAKNTVYLQINSLKPEDTAVYYCAAYPVVNEFDYWGQGTQVTVSS	high polyreactivity
QVQLEESGVGLVQAGGSLRFSCAASGRIFYSYAMGCDRQAPGKERELVATISSAGSTYYADSVKGRFTISRDNAKNTVYLQMNSLKPEDTAVYYCAARRPRRYGYWGLGTQVTVSS	high polyreactivity
QVQLEESGVGLVQAGGSLRLSCAASGRTFHIYAMGWYRQAPGKERELVADIRGRSGSTYYADSVKGRFTISRDNAKITVYLQMNSLKPEDTAVYYCAVGRYPYCSARYRFDYWGQGTQVSVSS	high polyreactivity
QVQLEESGVGLVQAGGSLRLSCAASGSTFQTYVMGWYRQAPGKERELVAAISSGGSTNYADSVKGRFTISRDNAKNTVYLQMNSLKPEDTAVYYCAKRWPYFRRGKDGYWGQGTQVTVSS	low polyreactivity
QVQLEESGVGLVQAGGSLRLSCAASGYTFDYYDMAWYRQAPGKERELVAAISCSGGRTYYADSVKGRFTISRDNAKNTVYLQMNSLKPEDTAVYYCNTRYGALGKGGMDYWGQGTQVTVSS	high polyreactivity
QVQLEESRGGLVQAGGSLRLSFAAYGFTYFGYAMGWYRQAPGKERELVAAISTIDGDTYYADSVKGRFTISRDNAKNTFYLLMNSLKPEDNAFYYCAADDYIDGDDYWGQGTQVSVSS	low polyreactivity
QVQLEETGGGLVQAGGSLRLSCAASGITFGDYAMGWYRQAPGKERELVAAISFTGASTYYADSVKWRFTISRDNAKNTVYLLMNSLKPDDTPVYYCAADPYVPYQDFLSGFDFWGQGTQVTVSW	low polyreactivity
QVQLEQSGGGLVQAGGSLRLSCAASGRTFVSNAMGWYRQAPGKERELVADITSGGSTDYADSVKGRFTISRDNANNTVYLQMNSLKPEDTAVYYCATDLWRWYGWFDYWGQGTQVTVSS	low polyreactivity
QVQLGDSGGGLVQAGGSLRISCAASGNTFLYYGMGWYRQAPGKDRDLVAAITQSGGTTYYADSVHGRFTISRDNAKYTVYLQMNSQKPEDTAVYYCGATRYYYYTYVYDDRGDYWGQGTQVTVSS	low polyreactivity
QVQLGESGGALVQAGGSLRLSCAASGSTIYAYDMGWYRPAPGKERELVAAISSGGSTYYADSVKGRFTFSRDNAKNTVYLQMNCLKPEDTAVYYCATEYTYELEASEPSDYDYWGQGTQVTVSS	low polyreactivity
QVQLGESGGGLVHEGGSLRLSCAASGFINFANTMGLYRQAPGKERELVAAITSDGSTYYADSVKGRFTISRDNAKNTVYLQMNSLKPEDTAVYYCNAQSNYADLAYWNDYWGQGTQVTVSS	low polyreactivity
QVQLGESGGGLVQAGGSLRFSCAASGRPFFVYGMGWSRQAPGKERELVAAISWNGGRTYYADSVKGRFTISRDKAKNTVYLQMKSLKPEDTAVYYCNARARDYTGPSSPIFYYWGQGTQVTVSS	low polyreactivity
QVQLGESGGGLVQAGGSLRLSCAASAYIFGSYAMGRSRQAAGKERELVATISYRAGRTYYADSVKGRFTISRDNAKNTVYLQMNSLKPEYTAVYFSDADFVIDLEYDYWGQGTQVTVSS	low polyreactivity

Sequence	polyreactivity (PSR sort gate)
QVQLGESGGGLVQAGGSLRLSCAASGFIFPGYAMGLYRQAPGKERELVAAITGSGGSTYYADSVKGRFTISRDNAKYTVYVQMNSVKTEDTAVDYCGAYVSGYLWGYDYWGHGTQVTVSS	high polyreactivity
QVQLGESGGGLVQAGGSLRLSCAASGFIFRNYAIGWYRPPPGKERELVAAISRSGGSKYYADCVKGRFTISRDKAKNSVYLQMNSLKPVDTAVYYCNKDPRGRIPVPGTWIMDYWGQGTQVTVSS	high polyreactivity
QVQLGESGGGLVQAGGSLRLSCAASGFTFDFYAMGWYRPAPGKEWELVAAINWSGSSTYYADSVKGRFTISRDNAKNTDYLQMNSLKPEDTAVYYCAAQVYYTLFPDVYTMYYWGQGTQETVSS	high polyreactivity
QVQLGESGGGLVQAGGSLRLSCAASGFTFGRYTMGWYRPAPGKERELVASITSSGARTYYADSVKGRFTISRDNAKNTVYLQMNSLKPEDTAVYYCNAGKRGSTYYYWGQGTQVTVSS	high polyreactivity
QVQLGESGGGLVQAGGSLRLSCAASGGTFARNTMGWYRQAPGKERELVAAITRGGSSTYYADSVKGRFTISRDYAKNTVYLQMNSLKPEDTAVYYCNKSLRWLYPYYGTTGRYDYWGQGTQVTVSS	high polyreactivity
QVQLGESGGGLVQAGGSLRLSCAASGIIFRYYAMAWYRQAPGKERELVAAISSSTGNTYYADSVKGRFTISRDNAKNTVYLQMNSLIPEDTAVYYCAARTRQISIVGYNYWGQGTQVTVSS	high polyreactivity
QVQLGESGGGLVQAGGSLRLSCAASGNIFRYYAMGWYRQAPGKERELVAAITWSGGSTYYADSVKGRFTISRDNAKNTVYLQMNSLKQEDTAVYYCNTYRVPYRTVQDDYWGQGTQVTLSS	high polyreactivity
QVQLGESGGGLVQAGGSLRLSCAASGNTFVSNAMGWYRQAPGKERELVAAINSGGSTNYADSVKGRFTISRDNAKNTVYLQMNSLKPEDTAVYYCNKDYDYPQRYWMDYWGQGTQVTVSS	low polyreactivity
QVQLGESGGGLVQAGGSLRLSCAASGRIFPVNAMGWYRQAPGKERELVATITSYSSTYADSVKGRFTISRDNAMNTVVLQMNCLKPEDTAVYYCNADQGYFGYDYWGQGTQVTVSS	low polyreactivity
QVQLGESGGGLVQAGGSLRLSCAASGRIFRNNAMGWYRQAPGKERELVAAITWSGGSTYYADSVKGRFTISRDNAKNTVYLQMNSLKPEDTAVYYCNAGRGYKYSYTYDYWGQGTQVTLSS	low polyreactivity
QVQLGESGGGLVQAGGSLRLSCAASGRIFRWYAMGWYRQAPGKVRELVAAISRSGTSTYYADSVKGRFTISRDNAKNTVYLQMNSLKPEDTAVYYCAADAVIFGMDYWGQGTQVTVSS	low polyreactivity
QVQLGESGGGLVQAGGSLRLSCAASGRIFWGYAMGWYRQAPGKERELVAAITRGTRTNYADSVKGRFTISRDNAKNTVYLQMNSLKPEDTAVYYCAADYRDSYLFYYWGQGTQVTVSS	high polyreactivity
QVQLGESGGGLVQAGGSLRLSCAASGRIFWYNAMGWYRQAPGKERELVAGIRSGGSTNYADSVKGRFTISRDNAKNTVYLQMNSLKPDDTAVYYCNVDHEARKLHVSIKQLSDHWGQGTQVTVSS	low polyreactivity
QVQLGESGGGLVQAGGSLRLSCAASGRTSTGYAMGWYRQAPGKERELVAGIDKIGGRTYYADSVKGRFTISRDNAKNTVYLQMNSLKPEDTAVYYCAKTRYFSVGTHWDYYYWGQGTQVTVSS	high polyreactivity
QVQLGESGGGLVQAGGSLRLSCAASGSIFGLYAMGWYRQAPGKERELVATITSGSSTTYADSVKGRFTISRDNAKNTVYLQMNSLKPEVTAVYYCGVDDLYGFDYWGQGTQVTVSS	low polyreactivity
QVQLGESGGGLVQAGGSLRLSCAASGSIFQPYAMGWYRQAPGKEREFVAAISRSGGMTYYADSVKGRFTISRDNEKNTVYLQMNSLKPEDTAVYYCATGRQVVRSYSEGDYSGQGTQVTVSS	low polyreactivity
QVQLGESGGGLVQAGGSLRLSCAASGSIFSKYAKGSYRQAPGKERELVAAITMNGGSTYYADSVKGRFTISRDNAKNTVYFQMNSLKPEDTAVYYCSKSERPWWGYYYQFDYWGQGTQVTVSS	low polyreactivity
QVQLGESGGGLVQAGGSLRLSCAASGSTFAPYAMGWYRQAPGKERELVAAISTGGSTNYADSVKGRFTISRDNAMNTVYFQMNSLKPEDTAVYYCNTGYFVWGFDYWGQGTQVTVSS	low polyreactivity
QVQLGESGGGLVQAGGSLRLSCAASGSTFAYNDMGWYRQAPGKEMELVADIRSGGNTKYADSVKGRFTISRDNAKNTVYFQMNSLKPEDTAVYYCATDGYRIDVYHPDYRYDYWGQGTQVTVSS	low polyreactivity
QVQLGESGGGLVQAGGSLRLSCAASGSTFGFYAMGWYRQAPGKERELVAAISGRGGSTYYADSVKGRFTISRDNAKNTVYLQMNSLKPEDTAVYYCAKEFKYWGYPYDYWGQGTQVTVSS	low polyreactivity
QVQLGESGGGLVQAGGSLRLSCAASGSTFNLYAMGWYRQAPGKERELVAAISFSGGSTYYADSVKGRFTISRDNAKNTVYLQMNSLKPEDTAVYYCAAVESSYEAWDTYYYWGQGTQVTVSS	low polyreactivity
